Experimental data published in paper PMC11260447, “OptoLacI: optogenetically engineered lactose operon repressor LacI responsive to light instead of IPTG” (Nucleic Acids Research, 2024).

Target: the molecule itself
Assay: SEC; purified protein incubated 1 hour in the dark, then Superdex 200 Increase 10/300 GL under dark condition; 20 mM Hepes pH 7.5, 200 mM NaCl

B1: OptoLacI^L (LacI^(W220F, 311-LOV2)) (other, E. coli | Avena sativa, UniProt P03023 1-311, looked up)
chain: MKPVTLYDVAEYAGVSYQTVSRVVNQASHVSAKTREKVEAAMAELNYIPNRVAQQLAGKQSLLIGVATSSLALHAPSQIVAAIKSRADQLGASVVVSMVERSGVEACKAAVHNLLAQRVSGLIINYPLDDQDAIAVEAACTNVPALFLDVSDQTPINSIIFSHEDGTRLGVEHLVALGHQQIALLAGPLSSVSARLRLAGWHKYLTRNQIQPIAEREGDFSAMSGFQQTMQMLNEGIVPTAMLVANDQMALGAMRAITESGLRVGADISVVGYDDTEDSSCYIPPLTTIKQDFRLLGQTSVDRLLQLSQGQLERIEKNFVITDPRLPDNPIIFASDSFLQLTEYSREEILGRNCRFLQGPETDRATVRKIRDAIDNQTEVTVQLINYTKSGKKFWNLFHLQPMRDQKGDVQYFIGVQLDGTEHVRDAAEREGVMLIKKTAENIDEAAAVKGNQLLPVSLVKRKTTLAPNTQTASPRALADSLMQLARQVSRLESGQ
notes: LOV2 domain of Avena sativa phototropin 1 (AsLOV2), residues 408-543; source: E. coli BL21 (DE3), plasmid pML364, purified (Ni-NTA twice, size exclusion chromatography)
- binding result: binds
